Target: the molecule itself
Experiment: SEC-MALS; SEC-MALLS with refractive index and UV280 monitoring; two coupled Superdex 200 5/15 columns; 10 mM MES pH 6, 150 mM NaCl, 0.03% β-DDM; 80 µg IMAC-purified STNhaA; protein conjugate analysis separating protein and detergent mass

B1: Na+/H+ antiporter NhaA from Salmonella enterica serovar Typhimurium LT2, recombinant with carboxy-terminal hexahistidine tag (natural protein)
chain: NLGILKHLHRFFSSDASGGIILIIAAALAMLMANMGATSGWYHDFLETPVQLRVGALEINKNMLLWINDALMAVFFLLIGLEVKRELMQGSLASLRQAAFPVIAAIGGMIVPALLYLAFNYSDPVTREGWAIPAATDIAFALGVLALLGSRVPLALKIFLMALAIIDDLGAIVIIALFYTSDLSIVSLGVAAFAIAVLALLNLCGVRRTGVYILVGAVLWTAVLKSGVHATLAGVIVGFFIPLKEKHGRSPAKRLEHVLHPWVAYLILPLFAFANAGVSLQGVTIDGLTSMLPLGIIAGLLIGKPLGISLFCWLALRFKLAHLPQGTTYQQIMAVGILCGIGFTMSIFIASLAFGNVDPELINWAKLGILIGSLLSAVVGYSWLRARLNAPA
notes: five residues that the expression construct adds at the amino-terminus; Na+/H+ antiporter NhaA, S. Typhimurium LT2, wild type; coding region (nhaA, STM0039) amplified from genomic DNA; calculated mass of the construct 44.01 kDa; Integral membrane protein, held in β-DDM detergent; also called STNhaA; STNhaA-His6; source: E. coli NM554 (pTTQ18A1-STNhaA-His6), membranes solubilized in β-DDM, …
- stoichiometry N: 2

Reference: paper PMC4092016, “Molecular Characterization of the Na^+/H^+-Antiporter NhaA from Salmonella Typhimurium” (PLoS ONE, 2014)
